Experimental data from the DeepSol protein solubility set.

assay: soluble on expression in E. coli; label from the status in PepcDB or PDB records

Row | Sequence | soluble on expression in E. coli
1 | APAHADHQITKRTDAENMYNTIQFLSQAPRVAGSPEELKAVRYIEQQFKSYGYHVEVQPFQFEGYTAPSEVTLKIGTEKKEGEAFTYSPNSDVTAELVYVGLGTTADVAGKDLNGKIALIQRGNISFADKVRNAAKQGAKAVIIYNNTDGKLNGTLGGSDASFVAAVGITKQEGDALAANLRAGEKITATVKVAGAEVKTLTSHNVIATKKPDANKKNTNDIIIIGSHHDSVEKAPGANDDASGVAVTLELARVMSKLKTDTELRFITFGAEENGLIGSKKYAASLSEDEIKRTIGMFQLDMVGSKDAGDLIMYTIDGKKNRVTDLGAAASSRLSGVLPYGQEGRSDHESFHALGIPAALFIHAPVEPWYHTPNDTLDKISKEKLDNVADIVGSAVYQAARPGELVIEPIDYPRRNVELQN | soluble
2 | MSYNNSYDVIILAGGLSKRFGADKCCFEVNSKTMLDRLLEQFDNPIVVSRSPRRIKKGILVIEKGEYEGPVKGVREGLKYVRRDRVFITGCDFPFLIKNLVDYVCSKPYDIVIPFDHRPQPLLACYSTELLNKNIDKINGLVELIELSSSVYFIGTEELLKIDPFLYSLININSIIDLIYRPIRIKTKSNFILRLEHHHHHH | not soluble
3 | MMKPIAVSQLSDNFFETISKEWMLVTAGNKNAFNTMTANWGGIGFLWNKPVVYVFIRPERYTFGFMEKSDYFTLSFLGEENKSIHKICGSKSGREVDKIKETGLKPMITDKGNVLFEQGRLSLECRKLYTDVLRKENFLDPSVYEQWYTTHGGLHHVYVAEITSAWIKD | not soluble
4 | MKLTIIRLEKFSDQDRIDLQKIWPEYSPSSLQVDDNHRIYAARFNERLLAAVRVTLSGTEGALDSLRVREVTRRRGVGQYLLEEVLRNNPGVSCWWMADAGVEDRGVMTAFMQALGFTTQQGGWEKCG | soluble
5 | MGSDKIHHHHHHMVLGGPMSLNRYFTGGLLCLLGCNPANAQTATIVLSATLLPACEAGSVGSGGAITFGTLDFGQYASLNNAISATSQQGAGSIRVRCVSGQTYAITLDGGLYGSVATRRMANIANTALTLTYNLYSDRPGGIVWDNTTGVAATGNGNDQWYPIYGLVPAQTTPVAGTYRDTVNVTISW | not soluble
6 | MDRRIAMSLQVLGAGLGRTGTLSLKFALEHLGFGPCYHATEVAANMRTALPLWNAAERGAADWSAIFAGYRSSTDHPGCYYWRQLIEVYPQAKVVLTVRDPDSWFESVTQTILMPGRKSTFVGPEGETFSTFLKQQMGGRSQDRAFMVDYFNRWNQAVIDAVPSDRLLVFSSRQGWAPLCGFLSVPVPHKPYPHLHARPRLRWFTRGLRLPDDVAARERHVREYLQYLREDLFGLEHHHHHH | soluble
7 | MYQNFVTKHDTAIQTSRFSVTGNVIPAAPTGNIPVINGGSITAERAVVNLYANMNVSTSSDGSFIVAMKVDTSPTDPNCVISAGVNLSFAGTSYPIVGIVRFESASEQPTSIAGSEVEHYPIEMSVGSGGVCSARDCATVDIHPRTSGNNVFVGVICSSAKWTSGRVIGTIATTQVIHEYQVLQPLK | soluble
8 | MNYPAEPFRIKSVETVSMISRDERVKKMQEAGYNTFLLNSKDIYIDLLTDSGTNAMSDKQWAGMMIGDEAYAGSENFYHLEKTVKELFGFKHIVPTHQGRGAENLLSQLAIKPGQYVAGNMYFTTTRFHQEKNGATFVDIVRDEAHDASLNLPFKGDIDLNKLATLIKEKGAENIAYICLAVTVNLAGGQPVSMANMRAVHEMASTYGIKIFYDATRCVENAYFIKEQEAGYENVSIKDIVHEMFSYADGCTMSGKKDCLVNIGGFLCMNDEEMFSAAKELVVVYEGMPSYGGLAGRDMEAMAIGLREAMQYEYIEHRVKQVRYLGDKLREAGVPIVEPTGGHAVFLDARRFCPHLTQDQFPAQSLAASIYMETGVRSMERGIVSAGRSKETGENHRPKLETVRLTIPRRVYTYAHMDVVADGIIKLYQHKEDIRGLTFVYEPKQLRFFTARFDFI | soluble
9 | MIFGVSRTAGMQPHQNKLPPAFPICPPRFLQNKPPAPPLREAVRHSEYPDPRYEMTFQTAFAPPRFEYSGLTLNQDKATKPQTV | not soluble
10 | MAPLGASPRLVLLFSGKRKSGKDFVTERLKSRLGGNICALLRLSGPLKEEYAREHGLDFQRLLDASTYKETYRRDMICWGEQKRQADPGFFCRKIVEGVSQPIWLVSDTRRTSDIQWFQEAYGAVIQTVRVVASEQSRQQRGWVFTLGVDDAESECGLDNFGNFDWVIENHGDEQCLEDQLEHLLGFIQAKL | soluble
11 | MGSDKIHHHHHHMISMDEFIEFVRGGPLGPIKKWGTKWSLWPVHLVTACCGAELAHAFACGYDGERIGALNYGIARQTNLIIVEGAITRKMAKVLRITWEQMPDPKFVIVMGACGLQGGIFWNGYHMVKPSDVVPVDFFIPGCPPTPEALLRGIRQLQFKIETGEAKTSATFPEVPLEAGRKPRVLPKSPKKISKAPAVIVNAPKEVDWEFGQKLVEEIKAKVEAKSVTITGKNRIAVKVESDYIPRAAMRLREMGFDHVKNVNVIDVPNEDKFIVEYHFSSYSVKELMPVIVNVFADIPRENPRVKSLASMFPSADYMEREMHDFFGVIFEGNPWMGRKFLLAPDAPEFPLRKDFKLEEEVYVR | not soluble
12 | MSLDIAELHRAGDDIKEMMKSEGYYSEPSKYEAELSDGNITFAYSYPIKAFEKFLGYYDRENRIAFNPSISMRTDFSFCLAACRYRKNGKTDTVVLDGYADNKYYKKAKFALDKFRSEYSINGSFDFYIKRYRRYQKAKGLSESSAVAAAVSRALISNVFGDDAAKDDIFVSRYARLVSGSGTRAAHDGISMWLSYPGMDSRDCVAFKVGKSNENLNYGVFPKYSDVATDNAHSIAVNSVFYGTWVSEKFSNVKRLISDHFDINDLLKIGENDMLRLNSILMSGGLIIQTPDSLRILKEILKFKSKNEGFYFTADTGPSIAIFSFDRSLIDEFRENVNDEYIEGSYDFKGYNNRMRDFIREAQEYFTQTPGEDEEDREGHHHHHH | soluble
13 | MALLILFFLLGLSFSLEVFSEKLEIKENEIIAEGDAEAYYKNYYIKAKKIKLLRDKDEVYAYEDVYIKNLKTGFEIRGSFAYVNMKKNKGYFLNAKGKFREFNFEAKKIEQLDKERFKVYEATVTTCPLDDKELYLCIFRANITKERALIFHNRLKFFKVPIFYLPVYLIPLGGRKTGFLMPTIGSSTYSSFIYIQPFFWAISRDKDMTITADYRKDQMKGLSLEYRQAFDEESDLITQFSLYKEDKKKGDWWKGREMYRENRFRIFMKYRKKPFKIGVEELSDPYYYEDISFKQEEITKPYTKTYLIYEKETKNYLFYFQTVRYRDLTEEKNNAVNLLPEASFHLKPFYYKGFNFSLDSSFTNFYRNYDGSFMRISLEPTVGKYFELFKVSNYSSLTLINRYYPDSEEDKIVSTFRFRHSVPQYFSLSYGGFKFKNFLEGLYTFSPKDYEVQIFDYQDELNEENNFQFTLVGNLYKNRKLMDYFLNTGYNLLGSYTFPTDGKKIDKKLLPLYYNVSVYPVENVRFWQDAVYDFNLGVFARNVIGTDISWKNFSVGISNSVYKNSEKKVTTDQIALNLKYSGDKFFSGISLNYDRLVDKETYRNVYVGVKGKCWSLVLDYKRNYYRNRDEYVDQVFLRFNLFFKEEIEIPLRR | not soluble
14 | SADNGGYVPAVVIGTGYGAAVSALRLGEAGVQTLMLEMGQLWNQPGPDGNIFCGMLNPDKRSSWFKNRTEAPLGSFLWLDVVNRNIDPYAGVLDRVNYDQMSVYVGRGVGGGSLVNGGMAVEPKRSYFEEILPRVDSSEMYDRYFPRANSMLRVNHIDTKWFEDTEWYKFARVSREQAGKAGLGTVFVPNVYDFGYMQREAAGEVPKSALATEVIYGNNHGKQSLDKTYLAAALGTGKVTIQTLHQVKTIRQTKDGGYALTVEQKDTDGKLLATKEISCRYLFLGAGSLGSTELLVRARDTGTLPNLNSEVGAGWGPNGNIMTARANHMWNPTGAHQSSIPALGIDAWDNSDSSVFAQIAPMPAGLETWVSLYLAITKNPQRGTFVYDAATDRAKLNWTRDQNAPAVNAAKALFDRINKANGTIYRYDLFGTQLKAFADDFCYQPLGGCVLGKATDDYGRVAGYKNLYVTDGSLIPGSVGVNPFVTITALAERNVERIIKQDVTAS | soluble
15 | MAKKNNKTKIQKPEAALQTDVAQITATGRVIAEHPSNFITPQKMRALFEDAESGDIRAQHELFADIEERDSDIAANMGTRKRALLTLNWRVAPPRNATPEEEKLSDQAYEMMDSLPTLEDLIMDLMDAVGHGFSALEVEWVFSDGLYLPRNFIHRPQSWFKWDKDNGLLLRTRENPEGEALWPLGWVVHTQKSRSVQQARNGLFRTLSWLYMFKHYAVHDFAEFLELYGMPIRIGKYGAGATKEEKNTLLRAVAEIGHNAAGIMPEGMEIELHNAANGTTATSNPFLQMADWCEKSAARLILGQTLTSGADGKSSTNALGNIHNEVRRDLLVSDAKQVAQTITSQIIGPFLQINYPHADPNRVPKFEFDTREPKDIAVFADAIPKLVDVGVQIPESWVRDKLVIPDVQEGEAVLVRQVPDNPVNRTALAALSAHTVPSKATGRHQEILDGALDDALVEPDFNSQLNPMVRQAVAALNACNSYEEADAALNALYPNLDNAKLRTYMQQALFISDILGQDHARA | not soluble
16 | MLIRQAGPADNAQLLDFQQRHAMRGSMPLRFDRSPDYFALHHCHAADHRTWIAQSPEGELRGSASLVVRDGYLQGSAEPIAYLGDLRLMPDRRLSRSWMAEVQTRLADLSLQTGAQHAYCCIIRDNPLAIQSLLGRRRANPLKLAHWRGYSNVSVYGQRGLSSAPRTHAGVRVVRAEPRHLDALRAFLDSESSRQSFGCVFSETEFERRISHWPDFAIGSFLLAVDERENLLGCVAPWDAGKIKRIVVEQMPVAQQLLRMGYNAVAPLAGRPGIASPGNPLRDIYLTHLQVRQRDPEVFAALLDVAWAQVRKDYSLMQLCLYDQDPLWLAMRRYRSVSLPMDLYTAPCGSNTPVFTETCAAGVPGFEIYLV | not soluble
17 | MVAISEIKSTVDVTAANCLMLLSRVGQENVDGGDQKRVFTCKTCLKQFHSFQALGGHRASHKKPNNDALSSGLMKKVKTSSHPCPICGVEFPMGQALGGHMRRHRNESGAAGGALVTRALLPEPTVTTLKKSSSGKRVACLDLSLGMVDNLNLKLELGRTVY | not soluble
18 | MGSDKIHHHHHHMVKVSIICTNYNKGSWIGEAIDSFLKQETSFPYEIIIVDDASTDHSVHIIKTYQKQYPDLIRAFFNQENQGITKTWSDICKKARGQYIARCDGDDYWIDPFKLQKQIDLLETSPESKWSNTDFDMVDSKGNIIHKDVLKNNIIPFMDSYEKMLALKGMTMASTWLVETKLMLEINDRINKDAVDDTFNIQLELFKKTKLAFLRDSTTVYRMDAESDSRSKDSEKLAQRFDRLLETQLEYIEKYPDSDYKKVLEYLLPKHNDFEKVLAQDGKNVWDNQQITIYLAKGDDQEFSEENCFQFPLQHSGNIQLTFPENIRKIRIDLSEIPSYYRQVSLVNTTVNTELLPTWTNAKVFGYSYYFIAPDPQMIYDLTAQEGQDFKLTYEWFNVDRPSQPDFLANHLVKELDQKKVELKMLSPYKYQYQKAVAERDLYLEQLNEMVVRYNSVTHSRRWTIPTKIINLFRRKK | not soluble
19 | MSLDNSRTRPRVGHIQFLNCLPLYWGLARTGTLLDFELTKDTPEKLSEQLVRGDLDIGPVTLVEFLKNADDLVAFPDIAVGCDGPVMSCVIVSQVPLDRLDGARVALGSTSRTSVRLAQLLLSERFGVQPDYYTCPPDLSLMMQEADAAVLIGDAALRANMIDGPRYGLDVHDLGALWKEWTGLPFVFAVWAARRDYAEREPVITRKVHEAFLASRNLSLEEVEKVAEQAARWEAFDEDTLAKYFTTLDFRFGAPQLEAVTEFARRVGPTTGFPADVKVELLKPEGHHHHHH | soluble
20 | MSQKEQIKTYKGPAGGWGALKAVTRSWWGSENAVKNIRTMLKTNQNGGFDCPGCAWGESPDSGKVNFCENGAKAVNWEATNRLVDPEFFANHSVSSLSTQTDYWLEYQG | not soluble
